Data: PMC8631942

Legend:
[1] = biological target: SHP2 (UniProt Q06124); experiment: GFP-Trap co-IP, SHP2 blot; details: reference: BTLA wild type
[2] = biological target: SHP1 (UniProt P29350); experiment: GFP-Trap co-IP, SHP1 blot; details: reference: BTLA wild type

Substance: BTLA (from UniProt Q7Z6A9) BTLAYYFY (Y257F)
- binding against the reference ([1]; sites Y257): lost
- binding against the reference ([2]; sites Y257): lost

Substance: BTLA (from UniProt Q7Z6A9) BTLAYYYF (Y282F)
- binding against the reference ([1]; sites Y282): lost
- binding against the reference ([2]; sites Y282): lost
